Laboratory results from article PMC8252718, “carba Nicotinamide Adenine Dinucleotide Phosphate: Robust Cofactor for Redox Biocatalysis” (Angewandte Chemie (International Ed. in English), 2021).

Experiments:
[1] = substrate: NC(=O)c1ccc[n+]([C@@H]2C[C@H](COP(=O)(O)OP(=O)(O)OC[C@H]3O[C@@H](n4cnc5c(N)ncnc54)[C@H](OP(=O)(O)O)[C@@H]3O)[C@@H](O)[C@H]2O)c1; experiment: purified protein, by the assay type; set-up: Spectrophotometric steady-state kinetics with varied oxidised cofactor in 96-well plates; details: pH 8.0
From the text: (§1) 12 cofactor concentrations of both cofactors ([NADP+ ] or [cNADP+ ]) x 2 (duplicates) = 48 reaction mixtures The enzyme concentration [E] as well as the buffer concentration [buffer] and the measurement conditions ( such as temperature of measurement (Tmeasure); volume (V), preheating time (theat), sequence of process steps (pipetting, preheating, addition of enzyme and measurement) were kept constant for the measurements of a kinetic. The reaction mixtures were pipetted in MTPs with the help of LHS, followed by preheating of the mixture and addition of 25 µL of enzyme solution was added with an electric MCP in multi-dispense mode, and measurement in an Epoch 2 - BioTek photometer. […] Detailed values of concentrations and reaction conditions can be found in the corresponding figures and their discriptons. SUPPORTING INFORMATION S5 Enzymatic activity measurements for NADP+ and carba-NADP+ All assays were performed in 96-well MTP plates in a reaction volume of 200 µL. Reactions were started by adding the enzyme. A detailed overview is given in (Table 2) showing the preferred reaction, the acceptance towards both cofactors (NADP(H) and carba-NADP(H)) and further reaction conditions. For all reactions, multiple negative reactions, were performed without adding a cofactor, enzyme or substrate, respectively. Production of carba-NADP+ The cofactor carba-NADP+ was prepared according to literature(WO 2011/012270 A1) by means of chemical and biocatalytical methods.[2] […] Reaction was followed spectrophotometrically. After full reduction, SsGDH was removed using a centrifugal filter with 10 kDa cut-off. The reduced cofactor was stored at -80 °C until further use. 10 mM stock was diluted 1:10 within the final reaction mixture. Biocatalytic approaches using (carba)-NADPH thus contained 2 mM glucose, 1 mM gluconic acid and 0.2 mM Tris-HCl as contaminants.

[2] = substrate: NC(=O)c1ccc[n+]([C@@H]2O[C@H](COP(=O)(O)OP(=O)(O)OC[C@H]3O[C@@H](n4cnc5c(N)ncnc54)[C@H](OP(=O)(O)O)[C@@H]3O)[C@@H](O)[C@H]2O)c1; experiment: purified protein, by the assay type; set-up: Spectrophotometric steady-state kinetics with varied oxidised cofactor in 96-well plates; details: pH 8.0
From the text: as §1

[3] = substrate: NC(=O)c1ccc[n+]([C@@H]2C[C@H](COP(=O)(O)OP(=O)(O)OC[C@H]3O[C@@H](n4cnc5c(N)ncnc54)[C@H](OP(=O)(O)O)[C@@H]3O)[C@@H](O)[C@H]2O)c1; experiment: steady-state kinetics; assay type: biochemical, Saccharolobus solfataricus; details: sugar oxidation; D-glucose activity about half of that with NADP+; varied: cofactor
From the text: (§2) steady-state kinetics on SsGDH | Looking deeper into the kinetic parameters of a selection of five enzymes | decreased Michaelis constant (K m) for the biomimetic for most of the enzymes

[4] = substrate: NC(=O)c1ccc[n+]([C@@H]2O[C@H](COP(=O)(O)OP(=O)(O)OC[C@H]3O[C@@H](n4cnc5c(N)ncnc54)[C@H](OP(=O)(O)O)[C@@H]3O)[C@@H](O)[C@H]2O)c1; experiment: steady-state kinetics; assay type: biochemical, Saccharolobus solfataricus; details: sugar oxidation; natural cofactor; varied: cofactor
From the text: as §2

Row | Protein | Km [1] [µM] | Vmax [1] [µmol/min/mg] | kcat [1] [s⁻¹] | kcat/Km [1] [M⁻¹ s⁻¹] | Km [2] [µM] | Vmax [2] [µmol/min/mg] | kcat [2] [s⁻¹] | kcat/Km [2] [M⁻¹ s⁻¹] | Km [3] [µM] | kcat [3] [s⁻¹] | Km [4] [µM] | kcat [4] [s⁻¹]
1 | ScG6PDH (Saccharomyces cerevisiae S288C) (protein, details only in supplement) SEGPVKFEKNTVISVFGASGDLAKKKTFPALFGLFREGYLDPSTKIFGYARSKLSMEEDLKSRVLPHLKKPHGEADDSKVEQFFKMVSYISGNYDTDEGFDELRTQIEKFEKSANVDVPHRLFYLALPPSVFLTVAKQIKSRVYAENGITRVIVEKPFGHDLASARELQKNLGPLFKEEELYRIDHYLGKELVKNLLVLRFGNQFLNASWNRDNIQSVQISFKERFGTEGRGGYFDSIGIIRDVMQNHLLQIMTLLTMERPVSFDPESIRDEKVKVLKAVAPIDTDDVLLGQYGKSEDGSKPAYVDDDTVDKDSKCVTFAAMTFNIENERWEGVPIMMRAGKALNESKVEIRLQYKAVASGVFKDIPNNELVIRVQPDAAVYLKFNAKTPGLSNATQVTDLNLTYASRYQDFWIPEAYEVLIRDALLGDHSNFVRDDELDISWGIFTPLLKHIERPDGPTPEIYPYGSRGPKGLKEYMQKHKYVMPEKHPYAWPVTKPEDTKDN | 26 | 14 | 13.4 | 516000 | 157 | 245 | 235 | 1.5e+06 |  |  |  | 
2 | LmG6PDH (Leuconostoc mesenteroides) (protein, details only in supplement) VSEIKTLVTFFGGTGDLAKRKLYPSVFNLYKKGYLQKHFAIVGTARQALNDDEFKQLVRDSIKDFTDDQAQAEAFIEHFSYRAHDVTDAASYAVLKEAIEEAADKFDIDGNRIFYMSVAPRFFGTIAKYLKSEGLLADTGYNRLMIEKPFGTSYDTAAELQNDLENAFDDNQLFRIDHYLGKEMVQNIAALRFGNPIFDAAWNKDYIKNVQVTLSEVLGVEERAGYYDTAGALLDMIQNHTMQIVGWLAMEKPESFTDKDIRAAKNAAFNALKIYDEAEVNKYFVRAQYGAGDSADFKPYLEELDVPADSKNNTFIAGELQFDLPRWEGVPFYVRSGKRLAAKQTRVDIVFKAGTFNFGSEQEAQEAVLSIIIDPKGAIELKLNAKSVEDAFNTRTIDLGWTVSDEDKKNTPEPYERMIHDTMNGDGSNFADWNGVSIAWKFVDAISAVYTADKAPLETYKSGSMGPEASDKLLAANGDAWVFKG | 27 | 45 | 40.7 | 1.51e+06 | 75 | 166 | 150 | 2e+06 |  |  |  | 
3 | SsGDH (Saccharolobus solfataricus) (protein, details only in supplement) MKAIIVKPPNAGVQVKDVDEKKLDSYGKIKIRTIYNGICGTDREIVNGKLTLSTLPKGKDFLVLGHEAIGVVEESYHGFSQGDLVMPVNRRGCGICRNCLVGRPDFCETGEFGEAGIHKMDGFMREWWYDDPKYLVKIPKSIEDIGILAQPLADIEKSIEEILEVQKRVPVWTCDDGTLNCRKVLVVGTGPIGVLFTLLFRTYGLEVWMANRREPTEVEQTVIEETKTNYYNSSNGYDKLKDSVGKFDVIIDATGADVNILGNVIPLLGRNGVLGLFGFSTSGSVPLDYKTLQEIVHTNKTIIGLVNGQKPHFQQAVVHLASWKTLYPKAAKMLITKTVSINDEKELLKVLREKEHGEIKIRILWE |  |  |  |  |  |  |  |  | 10 | 1.0 | 80 | 2.25
